This experiment has as its target T1, Soluble CDCP1 extracellular domain (CDCP1-ECD) (SEQ ID NO:30) fused to Streptavidin Binding Protein (SBP) (human, UniProt Q9H5V8 30-663).
T1 construct: also called SBP-CDCP1-ECD
T1 sequence: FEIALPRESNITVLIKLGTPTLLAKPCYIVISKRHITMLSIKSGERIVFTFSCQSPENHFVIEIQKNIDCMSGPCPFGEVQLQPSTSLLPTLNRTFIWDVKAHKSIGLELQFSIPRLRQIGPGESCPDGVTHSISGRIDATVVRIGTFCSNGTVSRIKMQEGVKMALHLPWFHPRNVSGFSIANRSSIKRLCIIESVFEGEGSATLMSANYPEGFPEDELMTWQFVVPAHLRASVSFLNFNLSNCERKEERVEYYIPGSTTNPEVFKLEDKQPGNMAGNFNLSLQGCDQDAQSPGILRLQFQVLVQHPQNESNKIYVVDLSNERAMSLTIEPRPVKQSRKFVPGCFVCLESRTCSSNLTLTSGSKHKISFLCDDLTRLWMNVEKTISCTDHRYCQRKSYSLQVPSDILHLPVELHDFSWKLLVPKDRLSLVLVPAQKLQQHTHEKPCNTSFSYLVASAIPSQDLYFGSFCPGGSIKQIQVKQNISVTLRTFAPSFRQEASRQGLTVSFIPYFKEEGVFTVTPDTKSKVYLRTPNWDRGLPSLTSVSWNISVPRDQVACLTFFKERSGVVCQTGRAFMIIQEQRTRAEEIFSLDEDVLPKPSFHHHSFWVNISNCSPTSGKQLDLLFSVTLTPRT
Description: ELISA on captured SBP-CDCP1-ECD, ratio relative to chimeric CUB4 (chHC4). An outline of the steps: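 Streptavidin plates coated overnight at 2–8° C with SBP-CDCP1-ECD HEK293 supernatant (1:15–1:40). Antibodies, undiluted or 12-step dilution, bound 90 min at room temperature; HRP anti-human IgG 1 h, ABTS read at 405/492 nm, signal expressed relative to chimeric chHC4 reference.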

18 molecules from US20110052582A1 (Hoffmann-La Roche, published 2011) can be followed below.

B1: hHC4-c / hLC4-a (antibody, V domains shown)
VH: EVQLVESGGGLVQPGGSLRLSCAASGFTFNSYGMSWVRQAPGKGLEWVATISSGGSYTYYPDSVKGRFTISRDNAKNSLYLQMNSLRAEDTAVYYCARHPDYDGVWFAYWGQGTLVTVSS
VL: EIVLTQSPATLSLSPGERATLSCSVSSSVFYVHWYQQKPGQAPRLLIYDTSKLASGIPARFSGSGSGTDFTLTISSLEPEDFAVYYCQQWNSNPPTFGGGTKVEIK
For B1, the relative binding ratio was 0.34.

B2: hHC4-H / hLC4-c (antibody, V domains shown)
VH: EVQLVESGGGLVQPGGSLRLSCAASGFTFNSYGMSWVRQAPGKGLEWVATISSGGSYKYYVDSVKGRFTISRDNAKNSLYLQMNSLRAEDTAVYYCARHPDYDGVWFAYWGQGTLVTVSS
VL: EIVMTQSPATLSVSPGERATLSCSVSSSVFYVHWYQQKPGQAPRLLIYDTSKLASGIPARFSGSGSGTEFTLTISSLQSEDFAVYYCQQWNSNPPTFGGGTKVEIK
notes: also called Humanized CUB4 Antibody No. 113
In the case of B2, the relative binding ratio stood at 0.44.

B3: hHC4-d / hLC4-c (antibody, V domains shown)
VH: EVQLLESGGGLVQPGGSLRLSCAASGFTFNSYGMSWVRQAPGKGLEWVSTISSGGSYTYYPDSVKGRFTISRDNSKNTLYLQMNSLRAEDTAVYYCAKHPDYDGVWFAYWGQGTLVTVSS
VL: EIVMTQSPATLSVSPGERATLSCSVSSSVFYVHWYQQKPGQAPRLLIYDTSKLASGIPARFSGSGSGTEFTLTISSLQSEDFAVYYCQQWNSNPPTFGGGTKVEIK
As to B3, the relative binding ratio was 0.45.

B4: hHC4-07 / hLC4-c (antibody, V domains shown)
VH: EVQLLESGGGLVQPGGSLRLSCAASGFTFNSYAMSWVRQAPGKGLEWVSTISSGGSYTYYPDSVKGRFTISRDNSKNTLYLQMNSLRAEDTAVYYCAKHPDYDGVWFAYWGQGTLVTVSS
VL: EIVMTQSPATLSVSPGERATLSCSVSSSVFYVHWYQQKPGQAPRLLIYDTSKLASGIPARFSGSGSGTEFTLTISSLQSEDFAVYYCQQWNSNPPTFGGGTKVEIK
Turning to B4, the relative binding ratio stood at 0.04.

B5: hHC4-I / hLC4-b (antibody, V domains shown)
VH: EVQLLESGGGLVQPGGSLRLSCAASGFTFNSYAMSWVRQAPGKGLEWVSAISSGGSYTYYADSVKGRFTISRDNSKNTLYLQMNSLRAEDTAVYYCAKHPDYDGVWFAYWGQGTLVTVSS
VL: EIVLTQSPATLSLSPGERATLSCSVSSSVFYVHWYQQKPGQAPRLLIYDTSKLASGIPARFSGSGSGTDYTLTISSLEPEDFAVYYCQQWNSNPPTFGGGTKVEIK
On to B5, for which the relative binding ratio amounted to 0.07.

B6: hHC4-03 / hLC4-c (antibody, V domains shown)
VH: EVQLLESGGGLVQPGGSLRLSCAASGFTFNSYGMSWVRQAPGKGLEWVSAISSGGSYTYYPDSVKGRFTISRDNSKNTLYLQMNSLRAEDTAVYYCAKHPDYDGVWFAYWGQGTLVTVSS
VL: EIVMTQSPATLSVSPGERATLSCSVSSSVFYVHWYQQKPGQAPRLLIYDTSKLASGIPARFSGSGSGTEFTLTISSLQSEDFAVYYCQQWNSNPPTFGGGTKVEIK
With B6, the relative binding ratio was 0.07.

B7: hHC4-04 / hLC4-c (antibody, V domains shown)
VH: EVQLLESGGGLVQPGGSLRLSCAASGFTFNSYGMSWVRQAPGKGLEWVSTISSGGSYTYYPDSVKGRFTISRDNSKNTLYLQMNSLRAEDTAVYYCARHPDYDGVWFAYWGQGTLVTVSS
VL: EIVMTQSPATLSVSPGERATLSCSVSSSVFYVHWYQQKPGQAPRLLIYDTSKLASGIPARFSGSGSGTEFTLTISSLQSEDFAVYYCQQWNSNPPTFGGGTKVEIK
For B7, the relative binding ratio was found to be 0.33.

B8: hHC4-d / hLC4-a (antibody, V domains shown)
VH: EVQLLESGGGLVQPGGSLRLSCAASGFTFNSYGMSWVRQAPGKGLEWVSTISSGGSYTYYPDSVKGRFTISRDNSKNTLYLQMNSLRAEDTAVYYCAKHPDYDGVWFAYWGQGTLVTVSS
VL: EIVLTQSPATLSLSPGERATLSCSVSSSVFYVHWYQQKPGQAPRLLIYDTSKLASGIPARFSGSGSGTDFTLTISSLEPEDFAVYYCQQWNSNPPTFGGGTKVEIK
Regarding B8, the relative binding ratio stood at 0.34.

B9: hHC4-d / hLC4-L2 (antibody, V domains shown)
VH: EVQLLESGGGLVQPGGSLRLSCAASGFTFNSYGMSWVRQAPGKGLEWVSTISSGGSYTYYPDSVKGRFTISRDNSKNTLYLQMNSLRAEDTAVYYCAKHPDYDGVWFAYWGQGTLVTVSS
VL: EIVLTQSPATLSLSPGERATMSCSVSSSVFYLHWYQQKPGQAPRLWIYDTSKLASGIPARFSGSGSGTDFTLTISSLEPEDFAVYYCQQWNSNPPTFGGGTKVEIK
With B9, the relative binding ratio was determined as 0.49.

B10: hHC4-d / hLC4-J (antibody, V domains shown)
VH: EVQLLESGGGLVQPGGSLRLSCAASGFTFNSYGMSWVRQAPGKGLEWVSTISSGGSYTYYPDSVKGRFTISRDNSKNTLYLQMNSLRAEDTAVYYCAKHPDYDGVWFAYWGQGTLVTVSS
VL: EIVMTQSPATLSLSPGERATMSCRASSSVFYLHWYQQKPGQAPRLWIYDTSKLASGIPARFSGSGSGTDFTLTISSLQPEDFAVYYCQQWNSNPPTFGGGTKVEIK
B10: the relative binding ratio was 0.38.

B11: hHC4-d / hLC4-M (antibody, V domains shown)
VH: EVQLLESGGGLVQPGGSLRLSCAASGFTFNSYGMSWVRQAPGKGLEWVSTISSGGSYTYYPDSVKGRFTISRDNSKNTLYLQMNSLRAEDTAVYYCAKHPDYDGVWFAYWGQGTLVTVSS
VL: EIVLTQSPATLSLSPGERATMSCGASSSVFYLHWYQQKPGLAPRLWIYDTSKLASGIPDRFSGSGSGTDFTLTISRLEPEDFAVYYCQQWNSNPPTFGGGTKVEIK
As to B11, the relative binding ratio turned out to be 0.8.

B12: hHC4-d / hLC4-K (antibody, V domains shown)
VH: EVQLLESGGGLVQPGGSLRLSCAASGFTFNSYGMSWVRQAPGKGLEWVSTISSGGSYTYYPDSVKGRFTISRDNSKNTLYLQMNSLRAEDTAVYYCAKHPDYDGVWFAYWGQGTLVTVSS
VL: EIVLTQSPATLSLSPGERATLSCRASSSVFYLHWYQQKPGQAPRLWIYDTSKLASGIPARFSGSGSGTDFTLTISSLEPEDFAVYYCQQWNSNPPTFGGGTKVEIK
With B12, the relative binding ratio is 0.52.

B13: hHC4-c / hLC4-b (antibody, V domains shown)
VH: EVQLVESGGGLVQPGGSLRLSCAASGFTFNSYGMSWVRQAPGKGLEWVATISSGGSYTYYPDSVKGRFTISRDNAKNSLYLQMNSLRAEDTAVYYCARHPDYDGVWFAYWGQGTLVTVSS
VL: EIVLTQSPATLSLSPGERATLSCSVSSSVFYVHWYQQKPGQAPRLLIYDTSKLASGIPARFSGSGSGTDYTLTISSLEPEDFAVYYCQQWNSNPPTFGGGTKVEIK
Consider B13, for which the relative binding ratio came to 0.28.

B14: hHC4-c / hLC4-d (antibody, V domains shown)
VH: EVQLVESGGGLVQPGGSLRLSCAASGFTFNSYGMSWVRQAPGKGLEWVATISSGGSYTYYPDSVKGRFTISRDNAKNSLYLQMNSLRAEDTAVYYCARHPDYDGVWFAYWGQGTLVTVSS
VL: EIVMTQSPATLSVSPGERATLSCSVSSSVFYVHWYQQKPGQAPRLLIYDTSKLASGIPARFSGSGSGTEYTLTISSLQSEDFAVYYCQQWNSNPPTFGGGTKVEIK
For B14, the relative binding ratio amounted to 0.36.

B15: hHC4-d / hLC4-b (antibody, V domains shown)
VH: EVQLLESGGGLVQPGGSLRLSCAASGFTFNSYGMSWVRQAPGKGLEWVSTISSGGSYTYYPDSVKGRFTISRDNSKNTLYLQMNSLRAEDTAVYYCAKHPDYDGVWFAYWGQGTLVTVSS
VL: EIVLTQSPATLSLSPGERATLSCSVSSSVFYVHWYQQKPGQAPRLLIYDTSKLASGIPARFSGSGSGTDYTLTISSLEPEDFAVYYCQQWNSNPPTFGGGTKVEIK
With B15, the relative binding ratio is 0.38.

B16: hHC4-d / hLC4-I (antibody, V domains shown)
VH: EVQLLESGGGLVQPGGSLRLSCAASGFTFNSYGMSWVRQAPGKGLEWVSTISSGGSYTYYPDSVKGRFTISRDNSKNTLYLQMNSLRAEDTAVYYCAKHPDYDGVWFAYWGQGTLVTVSS
VL: EIVMTQSPATLSLSPGERATLSCRASSSVFYLSWYQQKPGQAPRLWIYDTSKLASGIPARFSGSGSGTDFTLTISSLQPEDFAVYYCQQWNSNPPTFGGGTKVEIK
On to B16, for which the binding result is recorded as “no binding”.

B17: hHC4-d / hLC4-L (antibody, V domains shown)
VH: EVQLLESGGGLVQPGGSLRLSCAASGFTFNSYGMSWVRQAPGKGLEWVSTISSGGSYTYYPDSVKGRFTISRDNSKNTLYLQMNSLRAEDTAVYYCAKHPDYDGVWFAYWGQGTLVTVSS
VL: EIVLTQSPATLSLSPGERATMSCRASSSVFYLHWYQQKPGQAPRLWIYDTSKLASGIPARFSGSGSGTDFTLTISSLEPEDFAVYYCQQWNSNPPTFGGGTKVEIK
In the case of B17, the relative binding ratio amounted to 0.56.

B18: hHC4-c / hLC4-c (antibody, V domains shown)
VH: EVQLVESGGGLVQPGGSLRLSCAASGFTFNSYGMSWVRQAPGKGLEWVATISSGGSYTYYPDSVKGRFTISRDNAKNSLYLQMNSLRAEDTAVYYCARHPDYDGVWFAYWGQGTLVTVSS
VL: EIVMTQSPATLSVSPGERATLSCSVSSSVFYVHWYQQKPGQAPRLLIYDTSKLASGIPARFSGSGSGTEFTLTISSLQSEDFAVYYCQQWNSNPPTFGGGTKVEIK
Regarding B18, the relative binding ratio came to 0.29.
